Assay results: US20250092146A1, “ANTI-CCR8 ANTIBODIES, CONJUGATES, AND USES THEREOF” (Abilita Bio, Inc., priority 2023, published 2025)

Target: T1, HuT-78 cells that naturally express human CCR8 (Homo sapiens, UniProt P51685)
T1 construct: HuT-78 cells that naturally express human CCR8 were used as target cells; endogenous in cells; host or cells: HuT-78
Assay: Flow cytometry binding of yeast-display optimized VHH-Fc antibodies to HuT-78 cells
Details: Table 13; for EC50: clones tested as VHH-Fc fusions (human IgG1 Fc), HuT-78 cells; for Normalized Bmax (%): normalized to VHH-1 or VHH-2 depending on clone family
Text: Top VHH sequences were chosen from the FACS sorted populations based on an analysis of improved binding performance relative to the parental sequences and evidence of sequence enrichment by NGS. Candidate VHH were then cloned as VHH-Fc fusions to the short hinge of the IgG1 Fc domain (SEQ ID NO: 34), expressed in HEK293 cells as described earlier and purified for binding evaluation. Bmax values are shown as normalized to VHH-1 or VHH-2 depending on the clone family. […] Mutations are referenced by position according to the IMGT definition.

T1 sequence (P51685 whole entry): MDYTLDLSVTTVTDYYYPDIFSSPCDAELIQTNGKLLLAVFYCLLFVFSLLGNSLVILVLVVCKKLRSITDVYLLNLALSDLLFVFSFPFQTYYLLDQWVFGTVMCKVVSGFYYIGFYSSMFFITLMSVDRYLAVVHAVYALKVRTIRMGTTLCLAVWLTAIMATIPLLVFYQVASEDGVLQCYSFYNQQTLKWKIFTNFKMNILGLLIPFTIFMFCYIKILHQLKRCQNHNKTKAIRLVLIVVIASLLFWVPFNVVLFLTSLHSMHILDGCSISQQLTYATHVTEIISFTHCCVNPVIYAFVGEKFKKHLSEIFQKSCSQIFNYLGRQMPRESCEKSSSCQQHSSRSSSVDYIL

EC50 [nM] | Normalized Bmax (%) | Molecule
0.61 | 79.6 | VHH-1.3-11: VHH-1.3 variant G64T, SEQ ID NO: 196; tested as Fc fusion (protein) VHH: QVQLQESGGGLVQPGGSLRLSCAASGSTSSIRRIGWYRQAPGKGRELVARFSSGGTINYADSVKGRFTISGDNSKNTMYLQMNSLRAEDTAVYYCSARRLLGTSRVDYWGQGTQVTVSS
1.3 | 125.4 | VHH-1.3-10: VHH-1.3 variant T65I, L110V, SEQ ID NO: 195; tested as Fc fusion (protein) VHH: QVQLQESGGGLVQPGGSLRLSCAASGSTSSIRRIGWYRQAPGKGRELVARFSSGGGINYADSVKGRFTISGDNSKNTMYLQMNSLRAEDTAVYYCSARRLVGTSRVDYWGQGTQVTVSS
0.56 | 111.8 | VHH-1.3-7: VHH-1.3 variant A25V, R55H, N82K, SEQ ID NO: 192; tested as Fc fusion (protein) VHH: EVQLVESGGGLVQPGGSLRLSCAVSGSTSSIRRIGWYRQAPGKGRELVAHFSSGGGTNYADSVKGRFTISGDKSKNTMYLQMNSLRAEDTAVYYCSARRLLGTSRVDYWGQGTTVTVSS
0.38 | 91.1 | VHH-1.3-13: VHH-1.3 variant A25V, R38G, S57I, SEQ ID NO: 198; tested as Fc fusion (protein) VHH: EVQLVESGGGLVQPGGSLRLSCAVSGSTSSIRGIGWYRQAPGKGRELVARFISGGGTNYADSVKGRFTISGDNSKNTMYLQMNSLRAEDTAVYYCSARRLLGTSRVDYWGQGTQVTVSS
3.75 | 97.0 | VHH-1.3-6: VHH-1.3 variant R55H, SEQ ID NO: 191; tested as Fc fusion (protein) VHH: EVQLVESGGGLVQPGGSLRLSCAASGSTSSIRRIGWYRQAPGKGRELVAHFSSGGGTNYADSVKGRFTISGDNSKNTMYLQMNSLRAEDTAVYYCSARRLLGTSRVDYWGQGTTVTVSS

The remaining lines, values behind:

Molecule | EC50 [nM] | Normalized Bmax (%)
VHH-1.3-3: VHH-1.3 variant I39Y, G40S, R55W, SEQ ID NO: 188; tested as Fc fusion (protein) VHH: EVQLVESGGGLVQPGGSLRLSCAASGSTSSIRRYSWYRQAPGKGRELVAWFSSGGGTNYADSVKGRFTISGDNSKNTMYLQMNSLRAEDTAVYYCSARRLLGTSRVDYWGQGTQVTVSS | 1.81 | 104.4
VHH-1.3-4: VHH-1.3 variant R38T, R108I, SEQ ID NO: 189; tested as Fc fusion (protein) VHH: EVQLVESGGGLVQPGGSLRLSCAASGSTSSIRTIGWYRQAPGKGRELVARFSSGGGTNYADSVKGRFTISGDNSKNTMYLQMNSLRAEDTAVYYCSARILLGTSRVDYWGQGTTVTVSS | 7.68 | 82.4
VHH-1.3-12: VHH-1.3 variant S28F, G64T, L110Y, SEQ ID NO: 197; tested as Fc fusion (protein) VHH: EVQLVESGGGLVQPGGSLRLSCAASGFTSSIRRIGWYRQAPGKGRELVARFSSGGTTNYADSVKGRFTISGDNSKNTMYLQMNSLRAEDTAVYYCSARRLYGTSRVDYWGQGTQVTVSS | 1.24 | 79.6
VHH-1.3-5: VHH-1.3 variant R55G, SEQ ID NO: 190; tested as Fc fusion (protein) VHH: EVQLVESGGGLVQPGGSLRLSCAASGSTSSIRRIGWYRQAPGKGRELVAGFSSGGGTNYADSVKGRFTISGDNSKNTMYLQMNSLRAEDTAVYYCSARRLLGTSRVDYWGQGTTVTVSS | 4.42 | 90.1
